The values below come from publication PMC6118821.

The stoichiometry N is a count of units in the complex or per binding partner.

For this assay, the target named is Nucleosome with symmetrical linkers of 14 base pairs (nucleosome of the 2Chd1:1Nucleosome complex) (Xenopus laevis). Description: cryo-EM structure; 2:1 complex of ScChd1(1-1305Δ57–88) and a nucleosome with symmetrical 14 bp linkers, ADP-BeFx; envelope at 10-11 Å, two Chd1 and a nucleosome rigid-body docked.

With “ScChd1(1-1305Δ57–88) (from UniProt P32657 1-1305) (enzyme)”, the stoichiometry N is 2.
